Common to all, as to test: cell-based or functional assay
In experiment [1] the target is HIV envelope gp160 of 246F3 (pseudotyped virus) (HIV).
Experiment [2] deals with HIV envelope gp160 of 25710 (pseudotyped virus, Tier 2, clade C) (HIV).
The target in experiment [3] is HIV envelope gp160 of 398F1 (pseudotyped virus) (HIV).
The target in experiment [4] is HIV envelope gp160 of BJOX2000 (pseudotyped virus) (HIV).
The target in experiment [5] is HIV envelope gp160 of CE0217 (pseudotyped virus) (HIV).
The target of experiment [6] is HIV envelope gp160 of CE1176 (pseudotyped virus) (HIV).
Experiment [7] deals with HIV envelope gp160 of CH119 (pseudotyped virus) (HIV).
The target of experiment [8] is HIV envelope gp160 of CNE55 (pseudotyped virus) (HIV).
The target in experiment [9] is HIV envelope gp160 of CNE8 (pseudotyped virus) (HIV).
Experiment [10] addresses HIV envelope gp160 of TRO11 (pseudotyped virus) (HIV).
Experiment [11] addresses HIV envelope gp160 of X1632 (pseudotyped virus) (HIV).
The target in experiment [12] is HIV envelope gp160 of X2278 (pseudotyped virus) (HIV).
Experiment [13] deals with SIVmac239 envelope (pseudotyped virus, tier 3 isolate) (SIV).

Regarding “ReCD4-Ig sulfated by co-expressed IgE-TPST2 (Fc fusion)”, the IC50, pseudovirus neutralization, TZM-bl assay, mouse sera in experiment [1], in experiment [2], in experiment [3], in [4], in [5] and in experiment [6] was below 5 µg/mL throughout. The IC50, pseudovirus neutralization, TZM-bl assay, mouse sera in experiment [7], in [8], in experiment [9], in [10], in experiment [11] and in experiment [12] was below 5 µg/mL throughout. This substance yielded an IC50, neutralization of 25710 pseudovirus, TZM-bl assay, mouse sera in experiment [2] of 0.16 µg/mL. Also, in experiment [2], the IC80, neutralization of 25710 pseudovirus, TZM-bl assay, mouse sera is 1.35 µg/mL. The fold drop in IC50 against ReCD4-Ig without sulfation in experiment [2] turned out to be 6.8 fold; in [6] it was 10 fold. This substance also gave a fold drop in IC80 against ReCD4-Ig without sulfation in experiment [2] of 2.4 fold. Besides, the IC50, neutralization of CE1176 pseudovirus, TZM-bl assay, mouse sera in experiment [6] amounted to 0.05 µg/mL.

As to “ReCD4-Ig (expressed from p-ReCD4-Ig alone, no co-delivered sulfotransferase) (Fc fusion)”, the IC50, pseudovirus neutralization, TZM-bl assay, mouse sera in experiment [1], in [2], in experiment [3], in [4], in [5] and in experiment [6] was below 5 µg/mL each time. The IC50, pseudovirus neutralization, TZM-bl assay, mouse sera in experiment [7], in experiment [8], in experiment [9], in experiment [10], in experiment [11] and in [12] was below 5 µg/mL each time. The same substance gave an IC50, pseudovirus neutralization, TZM-bl assay, mouse sera in experiment [13] below 5 µg/mL. In experiment [2], the IC50, neutralization of 25710 pseudovirus, TZM-bl assay, mouse sera came to 1.09 µg/mL. The same substance registered an IC80, neutralization of 25710 pseudovirus, TZM-bl assay, mouse sera in experiment [2] of 3.27 µg/mL. Also, in experiment [6], the IC50, neutralization of CE1176 pseudovirus, TZM-bl assay, mouse sera stood at 0.57 µg/mL.

Values taken from US20210244795A1.
